Assay results from EP4671280A1 (Nanjing Leads Biolabs Co., Ltd., dated 2025).

T1: human Nectin-4 expressed on HT-1376 tumor cells (human, UniProt Q96NY8 32-510)
T1 construct: whole, on cells; also called HT-1376 cells expressing human Nectin-4
T1 sequence (looked up): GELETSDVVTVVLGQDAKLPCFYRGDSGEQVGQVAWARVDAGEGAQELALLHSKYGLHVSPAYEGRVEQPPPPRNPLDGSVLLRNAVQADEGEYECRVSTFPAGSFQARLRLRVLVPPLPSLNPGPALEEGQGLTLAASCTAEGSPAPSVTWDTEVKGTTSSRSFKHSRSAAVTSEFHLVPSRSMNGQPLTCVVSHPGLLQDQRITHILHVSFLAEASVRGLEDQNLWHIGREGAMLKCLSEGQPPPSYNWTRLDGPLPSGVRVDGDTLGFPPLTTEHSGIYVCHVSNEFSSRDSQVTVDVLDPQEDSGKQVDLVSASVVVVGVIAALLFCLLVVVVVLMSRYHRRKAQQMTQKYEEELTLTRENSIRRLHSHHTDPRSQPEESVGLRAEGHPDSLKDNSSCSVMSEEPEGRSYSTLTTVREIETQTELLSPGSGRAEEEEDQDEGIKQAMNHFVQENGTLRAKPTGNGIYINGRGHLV

T2: cynomolgus monkey Nectin-4 expressed on CHO-K1 cells (cynomolgus monkey, UniProt Q96NY8 32-370 (human entry), limits assumed)
T2 construct: also called CHO-K1/cynoNectin4; cells expressing the cynomolgus monkey Nectin-4 protein
T2 chain: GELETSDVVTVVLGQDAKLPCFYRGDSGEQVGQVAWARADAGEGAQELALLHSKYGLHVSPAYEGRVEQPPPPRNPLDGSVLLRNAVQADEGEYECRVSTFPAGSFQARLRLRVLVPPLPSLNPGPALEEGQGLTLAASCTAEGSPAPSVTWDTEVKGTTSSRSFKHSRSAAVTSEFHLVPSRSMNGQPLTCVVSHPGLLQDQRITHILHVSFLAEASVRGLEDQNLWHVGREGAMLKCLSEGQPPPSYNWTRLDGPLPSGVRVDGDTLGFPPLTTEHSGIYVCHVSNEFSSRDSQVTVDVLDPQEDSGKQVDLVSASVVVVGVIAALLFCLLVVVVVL

T3: human Nectin-2 protein (Sino Biological, Cat. No. 10005-H08H) (human, UniProt Q92692 32-360)
T3 sequence (looked up): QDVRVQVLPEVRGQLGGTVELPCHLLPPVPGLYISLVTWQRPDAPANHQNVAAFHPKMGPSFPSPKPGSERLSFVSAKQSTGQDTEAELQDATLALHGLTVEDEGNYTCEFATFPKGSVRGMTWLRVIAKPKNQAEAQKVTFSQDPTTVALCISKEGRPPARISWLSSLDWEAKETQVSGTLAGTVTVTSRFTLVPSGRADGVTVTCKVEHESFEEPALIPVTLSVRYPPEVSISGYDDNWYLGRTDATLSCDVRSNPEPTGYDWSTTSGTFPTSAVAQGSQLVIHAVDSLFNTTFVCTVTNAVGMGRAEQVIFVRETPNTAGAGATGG

B1: Antibody 23-H4F3 (murine chimeric anti-Nectin-4 antibody) (antibody, human IgG1, kappa, V domains shown)
VH: QVQLQQSGPELVKPGASVRISCKASGYTFTSYYIHWVKQRPGQGLEWIGWIYPGNVNTKYNEKFKGKATLTADKSSSTAYMQLISLTSEDSAVYFCARGVYYFDFWGQGTTLTVSS
VL: SIVMTQTPKFLLVSAGDRVTLTCKASQSVSNDVAWFQQKPGQSPKLLIYYALNRYTGVPDRFTGSGYGTDFTFTISTVQAEDLAVYFCQQDYSSPYTFGGGTKLEIKR
notes: Mouse variable regions on human IgG1 / human kappa constant regions, expressed in ExpiCHO-S cells; also called chimeric antibody 23-H4F3
B2: Antibody 6-B9B6 (murine chimeric anti-Nectin-4 antibody) (antibody, human IgG1, kappa, V domains shown)
VH: EVHLVESGGGLVQPGGSLKLSCAASGFTFSSYGMSWVRQTPDKRLELVATINNIGGSTFPPDSVKGRFTVSRDNAKNTLYLQMSSLKSEDTAMYYCARAYDYVPFAYWGQGTLVTVSA
VL: DIQMTQSSSYLSVSLGGRVTITCKASDHINNWLAWYQQKPGNAPRLLISGATSLETGVPSRFSGSGSGKDYALSIASLQTEDVATYYCQQYWSTPFTFGSGTKLEIKR
notes: Mouse variable regions on human IgG1 / human kappa constant regions
B3: Antibody 32-A12C7 (murine chimeric anti-Nectin-4 antibody) (antibody, human IgG1, kappa, V domains shown)
VH: QVQLQQPGAELVMPGASVKMSCKASGYTFTDYWMHWVKQRPGQGLEWIGAIDTSDSYTSYNQKFKGKATLTVDESSSTAYMQLSSLTSEDSAVYYCARWGSTMITWGYGMDNWGQGTSVTVSS
VL: DIQMTQTTSSLSASLGDRVTISCRASQDINNYLNWYQQKPDGTVKLLIYYTSRLHSGVPSRFSGSGSGTDYSLTISNLEQEDIATYFCQQGNTLPWTFGGGTKLEIKR
notes: as for B2
B4: huH4F3-2 (antibody, human IgG1, kappa, V domains shown)
VH: QVQLVQSGAEVKKPGASVKVSCKASGYTFTSYYIHWVRQAPGQRLEWMGWIYPGNVNTKYSQKFQGRVTLTRDKSASTAYMELSSLRSEDTAVYYCARGVYYFDFWGQGTLVTVSS
VL: AIQMTQSPSSLSASVGDRVTITCRASQSVSNDVGWYQQKPGKAPKLLIYYALNRYTGVPSRFSGSGSGTDFTLTISSLQPEDFATYYCQQDYSSPYTFGQGTKLEIKR
notes: Humanized 23-H4F3, human IgG1/kappa
B5: huH4F3-1 (antibody, human IgG1, kappa, V domains shown)
VH: QVQLVQSGAEVKKPGASVKVSCKASGYTFTSYYIHWVRQAPGQRLEWMGWIYPGNVNTKYSQKFQGRVTLTRDKSASTAYMELSSLRSEDTAVYYCARGVYYFDFWGQGTLVTVSS
VL: AIQMTQSPSSLSASVGDRVTITCRASQSVSNDVGWYQQKPGKAPKLLIYYALNLQSGVPSRFSGSGSGTDFTLTISSLQPEDFATYYCQQDYSSPYTFGQGTKLEIKR
notes: as for B4
B6: huH4F3-3 (antibody, human IgG1, kappa, V domains shown)
VH: QVQLVQSGAEVKKPGASVKVSCKASGYTFTSYYIHWVRQAPGQRLEWMGWIYPGNVNTKYSQKFQGRVTLTRDKSASTAYMELSSLRSEDTAVYYCARGVYYFDFWGQGTLVTVSS
VL: AIQMTQSPSSLSASVGDRVTITCRASQSVSNDVGWFQQKPGKAPKLLIYYALNRYTGVPSRFSGSGSGTDFTFTISSLQPEDFATYYCQQDYSSPYTFGQGTKLEIKR
notes: as for B4
B7: huH4F3-6 (antibody, human IgG1, kappa, V domains shown)
VH: QVQLVQSGAEVKKPGASVKVSCKASGYTFTSYYIHWVRQAPGQRLEWMGWIYPGNVNTKYSQKFQGRVTLTRDKSASTAYMELSSLRSEDTAVYFCARGVYYFDFWGQGTLVTVSS
VL: AIQMTQSPSSLSASVGDRVTITCRASQSVSNDVGWYQQKPGKAPKLLIYYALNLQSGVPSRFSGSGSGTDFTLTISSLQPEDFATYYCQQDYSSPYTFGQGTKLEIKR
notes: as for B4
B8: huH4F3-7 (antibody, human IgG1, kappa, V domains shown)
VH: QVQLVQSGAEVKKPGASVKVSCKASGYTFTSYYIHWVRQAPGQRLEWMGWIYPGNVNTKYSQKFQGRVTLTRDKSASTAYMELSSLRSEDTAVYFCARGVYYFDFWGQGTLVTVSS
VL: AIQMTQSPSSLSASVGDRVTITCRASQSVSNDVGWYQQKPGKAPKLLIYYALNRYTGVPSRFSGSGSGTDFTLTISSLQPEDFATYYCQQDYSSPYTFGQGTKLEIKR
notes: as for B4
B9: huH4F3-8 (antibody, human IgG1, kappa, V domains shown)
VH: QVQLVQSGAEVKKPGASVKVSCKASGYTFTSYYIHWVRQAPGQRLEWMGWIYPGNVNTKYSQKFQGRVTLTRDKSASTAYMELSSLRSEDTAVYFCARGVYYFDFWGQGTLVTVSS
VL: AIQMTQSPSSLSASVGDRVTITCRASQSVSNDVGWFQQKPGKAPKLLIYYALNRYTGVPSRFSGSGSGTDFTFTISSLQPEDFATYYCQQDYSSPYTFGQGTKLEIKR
notes: as for B4
B10: huH4F3-4 (antibody, human IgG1, kappa, V domains shown)
VH: QVQLVQSGAEVKKPGASVKVSCKASGYTFTSYYIHWVRQAPGQRLEWMGWIYPGNVNTKYSQKFQGRVTLTRDKSASTAYMELSSLRSEDTAVYYCARGVYYFDFWGQGTLVTVSS
VL: DIVMTQSPDSLAVSLGERATINCKASQSVSNDVAWYQQKPGQPPKLLIYYALNRESGVPDRFSGSGSGTDFTLTISSLQAEDVAVYYCQQDYSSPYTFGQGTKLEIKR
notes: as for B4
B11: huH4F3-5 (antibody, human IgG1, kappa, V domains shown)
VH: QVQLVQSGAEVKKPGASVKVSCKASGYTFTSYYIHWVRQAPGQRLEWMGWIYPGNVNTKYSQKFQGRVTLTRDKSASTAYMELSSLRSEDTAVYYCARGVYYFDFWGQGTLVTVSS
VL: DIVMTQSPDSLAVSLGERATINCKSSQSVSNDVAWYQQKPGQPPKLLIYYALNRESGVPDRFSGSGSGTDFTLTISSLQAEDVAVYYCQQDYSSPYTFGQGTKLEIKR
notes: as for B4
B12: huH4F3-9 (antibody, human IgG1, kappa, V domains shown)
VH: QVQLVQSGAEVKKPGASVKVSCKASGYTFTSYYIHWVRQAPGQRLEWMGWIYPGNVNTKYSQKFQGRVTLTRDKSASTAYMELSSLRSEDTAVYFCARGVYYFDFWGQGTLVTVSS
VL: DIVMTQSPDSLAVSLGERATINCKASQSVSNDVAWYQQKPGQPPKLLIYYALNRESGVPDRFSGSGSGTDFTLTISSLQAEDVAVYYCQQDYSSPYTFGQGTKLEIKR
notes: as for B4
B13: huH4F3-10 (antibody, human IgG1, kappa, V domains shown)
VH: QVQLVQSGAEVKKPGASVKVSCKASGYTFTSYYIHWVRQAPGQRLEWMGWIYPGNVNTKYSQKFQGRVTLTRDKSASTAYMELSSLRSEDTAVYFCARGVYYFDFWGQGTLVTVSS
VL: DIVMTQSPDSLAVSLGERATINCKSSQSVSNDVAWYQQKPGQPPKLLIYYALNRESGVPDRFSGSGSGTDFTLTISSLQAEDVAVYYCQQDYSSPYTFGQGTKLEIKR
notes: as for B4
B14: Enfortumab (antibody, human IgG1, kappa, V domains shown)
VH: EVQLVESGGGLVQPGGSLRLSCAASGFTFSSYNMNWVRQAPGKGLEWVSYISSSSSTIYYADSVKGRFTISRDNAKNSLSLQMNSLRDEDTAVYYCARAYYYGMDVWGQGTTVTVSS
VL: DIQMTQSPSSVSASVGDRVTITCRASQGISGWLAWYQQKPGKAPKFLIYAASTLQSGVPSRFSGSGSGTDFTLTISSLQPEDFATYYCQQANSFPPTFGGGTKVEIKR
notes: used as control antibody (naked antibody, no drug); also called control antibody enfortumab

Assays:
[1] = target: T1, human Nectin-4 expressed on HT-1376 …; test: flow cytometry on HT-1376 cells
[2] = target: T2, cynomolgus monkey Nectin-4 expressed on …; test: flow cytometry on CHO-K1/cynoNectin4 cells
[3] = target: T3, human Nectin-2 protein (Sino …); test: ELISA, Nectin family protein immobilised on plate
[4] = target: human Nectin-3 protein (Sino Biological, Cat. No. 10852-H08H) (human, UniProt Q9NQS3 58-404); test: ELISA, Nectin family protein immobilised on plate
Chain of human Nectin-3 protein (Sino Biological, Cat. No. 10852-H08H) (Q9NQS3 58-404 limits assumed): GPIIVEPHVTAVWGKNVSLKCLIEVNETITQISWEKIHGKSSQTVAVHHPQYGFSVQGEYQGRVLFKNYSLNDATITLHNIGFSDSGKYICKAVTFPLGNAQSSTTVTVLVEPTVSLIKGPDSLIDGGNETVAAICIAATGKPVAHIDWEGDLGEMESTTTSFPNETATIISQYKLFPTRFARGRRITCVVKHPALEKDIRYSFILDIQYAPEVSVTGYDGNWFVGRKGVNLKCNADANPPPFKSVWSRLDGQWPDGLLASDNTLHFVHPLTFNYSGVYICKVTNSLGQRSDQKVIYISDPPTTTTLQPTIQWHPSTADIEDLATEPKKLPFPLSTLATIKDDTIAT

| Binder | EC50 [1] [nM] | EC50 [2] [nM] | binding result [3] | binding result [4] | binding result [1] | binding result [2] |
| --- | --- | --- | --- | --- | --- | --- |
| B1 | 0.064 | 0.411 | no binding | no binding | – | – |
| B2 | 0.249 | 0.719 | no binding | no binding | – | – |
| B3 | 0.3 | 1.05 | – | – | – | – |
| B4 | – | – | – | – | binds | binds |
| B5 | – | – | – | – | binds | binds |
| B6 | – | – | – | – | binds | binds |
| B7 | – | – | – | – | binds | binds |
| B8 | – | – | – | – | binds | binds |
| B9 | – | – | – | – | binds | binds |
| B10 | – | – | – | – | binds | binds |
| B11 | – | – | – | – | binds | binds |
| B12 | – | – | – | – | binds | binds |
| B13 | – | – | – | – | binds | binds |
| B14 | – | – | – | – | binds | binds |
